Assay results as given in publication PMC7885266 (Chemical Science, 2020).
Several values for one entry are separate records, joined by “and”; a condition that tells them apart may be missing. Equal entries are not always repeated.

B1: Tankyrase-2 Ankyrin Repeat Cluster 4 (residues 488-649) (domain or fragment, human, UniProt Q9H2K2 488-649, looked up)
chain: GNSEADRQLLEAAKAGDVETVKKLCTVQSVNCRDIEGRQSTPLHFAAGYNRVSVVEYLLQHGADVHAKDKGGLVPLHNACSYGHYEVAELLVKHGAVVNVADLWKFTPLHEAAAKGKYEICKLLLQHGADPTKKNRDGNTPLDLVKDGDTDIQDLLRGDAAL
notes: human tankyrase 2, fourth ankyrin-repeat cluster (ARC4), residues 488-649; also called hTNKS2 ARC4; TNKS2 ARC4; source: E. coli, purified (IMAC, SEC; His tag removed with thrombin)
B2: 4TBP-CTPR8 (designed binder)
chain: AEAWYNLGNAYYKQGDYQKAIEYYQKALELDPNNREAGDGEEDPRSAEAWYNLGNAYYKQGDYQKAIEYYQKALELDPRSAEAWYNLGNAYYKQGDYQKAIEYYQKALELDPNNREAGDGEEDPRSAEAWYNLGNAYYKQGDYQKAIEYYQKALELDPRSAEAWYNLGNAYYKQGDYQKAIEYYQKALELDPNNREAGDGEEDPRSAEAWYNLGNAYYKQGDYQKAIEYYQKALELDPRSAEAWYNLGNAYYKQGDYQKAIEYYQKALELDPNNREAGDGEEDPRSAEAWYNLGNAYYKQGDYQKAIEYYQKALELDPRS
B3: Tankyrase-2 Ankyrin Repeat Clusters 1-3 (residues 2-485) (domain or fragment, human, UniProt Q9H2K2 2-485, looked up)
chain: SGRRCAGGGAACASAAAEAVEPAARELFEACRNGDVERVKRLVTPEKVNSRDTAGRKSTPLHFAAGFGRKDVVEYLLQNGANVQARDDGGLIPLHNACSFGHAEVVNLLLRHGADPNARDNWNYTPLHEAAIKGKIDVCIVLLQHGAEPTIRNTDGRTALDLADPSAKAVLTGEYKKDELLESARSGNEEKMMALLTPLNVNCHASDGRKSTPLHLAAGYNRVKIVQLLLQHGADVHAKDKGDLVPLHNACSYGHYEVTELLVKHGACVNAMDLWQFTPLHEAASKNRVEVCSLLLSYGADPTLLNCHNKSAIDLAPTPQLKERLAYEFKGHSLLQAAREADVTRIKKHLSLEMVNFKHPQTHETALHCAAASPYPKRKQICELLLRKGANINEKTKEFLTPLHVASEKAHNDVVEVVVKHEAKVNALDNLGQTSLHRAAYCGHLQTCRLLLSYGCDPNIISLQGFTALQMGNENVQQLLQEGI
notes: human tankyrase 2, ankyrin-repeat clusters 1-3, residues 2-485; also called hTNKS2 ARC1–3; source: E. coli, purified (IMAC, SEC; His tag removed with thrombin)
B4: 1TBP-CTPR2 (designed binder)
chain: AEAWYNLGNAYYKQGDYQKAIEYYQKALELDPNNREAGDGEEDPRSAEAWYNLGNAYYKQGDYQKAIEYYQKALELDPRS
B5: 2TBP-CTPR4 (designed binder)
chain: AEAWYNLGNAYYKQGDYQKAIEYYQKALELDPNNREAGDGEEDPRSAEAWYNLGNAYYKQGDYQKAIEYYQKALELDPRSAEAWYNLGNAYYKQGDYQKAIEYYQKALELDPNNREAGDGEEDPRSAEAWYNLGNAYYKQGDYQKAIEYYQKALELDPRS

How the values were obtained:
Settings in all cases: both partners purified
1TBP-CTPR2 = biological target: B4; assay: ITC; TNKS2 ARC4 (500 μM) titrated into the cell holding one nTBP-CTPR2n construct (50, 25, 16.6 or 12.5 μM); 25 °C; 10 mM sodium phosphate, 150 mM NaCl, 0.5 mM TCEP, pH 7.4; OneSite model
2TBP-CTPR4 = biological target: B5; assay: as above
3TBP-CTPR6 [1] = biological target: T1, 3TBP-CTPR6; assay: as above
T1 chain: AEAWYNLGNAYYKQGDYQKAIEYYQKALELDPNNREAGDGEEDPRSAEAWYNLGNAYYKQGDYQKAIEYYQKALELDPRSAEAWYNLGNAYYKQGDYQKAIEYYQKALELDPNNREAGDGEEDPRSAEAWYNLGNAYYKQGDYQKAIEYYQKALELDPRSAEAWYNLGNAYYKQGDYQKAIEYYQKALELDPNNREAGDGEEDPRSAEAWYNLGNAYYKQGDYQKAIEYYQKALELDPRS

4TBP-CTPR8 = biological target: B2; assay: as above
[2] = biological target: B1; assay: as above
3TBP-CTPR6 [3] = biological target: T1, 3TBP-CTPR6; assay: co-sedimentation; co-precipitation assay: 10 μM hTNKS2 ARC1–3 mixed with an equal volume of CTPR protein (fixed or increasing concentrations) in 50 mM Tris-HCl, 150 mM NaCl, 0.5 mM TCEP, pH 7.3; 1 h at room temperature, 20 000g 30 min; supernatant and pellet on SDS-PAGE, band densities give the stoichiometry in the pellet

With B1 the “stoichiometry N” value (1TBP-CTPR2) was 1.01 and 0.9, the “stoichiometry N” value (2TBP-CTPR4) was 2.18 and 2.05 and the “stoichiometry N” value (3TBP-CTPR6 [1]) was 2.77 and 2.72. The “stoichiometry N” value (4TBP-CTPR8) was 3.38 and 2.91.

With B2 the Kd [2] was 13.6 µM and 15.5 µM.

B3 was tested, and the “stoichiometry N” value (3TBP-CTPR6 [3]) was 1.

In the case of B4, the Kd [2] is reported as 14.7 µM and 12.8 µM.

B5 was tested, and the Kd [2] was 11.9 µM and 18.6 µM.
